Patent US9770493B2 (DSM IP ASSETS B.V., priority 2008, dated 2017)
Like-named read-outs stand apart in the source and are kept apart here. Peptide text beside a SMILES is read from it.

Columns and labels:
healthy volunteers = assay: Profile of Mood States (POMS) after drinks with different tryptophan sources (Example 6); assay type: in vivo, human; details: for mood changes (POMS total mood scores): after the intake, over the session
Description: Subjects were instructed to fast overnight; only water or tea without sugar was permitted. During five experimental morning sessions, subjects visited the laboratory to monitor plasma Trp/LNAA concentrations and mood following the intake of a drink containing different Trp or LNAA concentrations. The order of presentation of the various drinks was counterbalanced and the four experimental days were separated by a one-week period. On each experimental morning, a 312 ml drink was provided containing different tryptophan (Trp) or LNAA concentrations (Table 2). All drinks contained 0.10 g sweetener (acesulfame) and were filled up with plain water in order to reach 312 mL. A research assistant blind to the dietary conditions conducted the administration of the different drinks.
The POMS comprises five different subscales for mood; ranging from Anger, Depression, Fatigue and Tension that refer to a negative mood state, to Vigor concerning a positive mood.

[1] = set-up: species or system human; details: in vivo
Description: The aim of the present study was to investigate in healthy volunteers plasma Trp/LNAA profiles and mood after the consumption of different tryptophan containing preparations.
Eighteen healthy students (9 males and 9 females: age between 18-30 years) participated in the study. Exclusion criteria for participation were chronic and current illness, history of psychiatric or medical illness, use of medication or drugs, alcohol consumption (>2 units/day), metabolic-, hormonal- or intestinal diseases and irregular diets or deviant eating habits (assessed by health and life-style questionnaires). Subjects participating in the experiment were in the normal range for the Body-Mass Index (BMI in kg/m^2 between 20-25) and female subjects are matched for contraception. Women participated during their mid-late follicular phase (day 4-10), while women using contraception participated when they actually used the contraception pill. […] All subjects participating in the experiment signed an Informed Consent Form. This study was conducted according to the EC principles of Good Clinical Practice (GCP) adopted by the 52nd WMA General Assembly, Edinburgh, Scotland, October 2000.
Subjects were instructed to fast overnight; only water or tea without sugar was permitted. During […] experimental morning sessions, subjects visited the laboratory to monitor plasma Trp/LNAA concentrations and mood following the intake of a drink containing different Trp or LNAA concentrations. The order of presentation of the various drinks was counterbalanced and the four experimental days were separated by a one-week period. On each experimental morning, a 312 ml drink was provided containing different tryptophan (Trp) or LNAA concentrations (Table 2). All drinks contained 0.10 g sweetener (acesulfame) and were filled up with plain water in order to reach 312 mL. A research assistant blind to the dietary conditions conducted the administration of the different drinks.
Blood samples were collected in duplicate before and 15, 30, 60, 90, 120, 180 and 210 minutes after ingestion in 5 ml vacutainer tubes containing sodium heparine and were then centrifuged at 5000 rpm for 5 min at 4° C. The resulting supernatants were mixed with sulfasalicyl acid (4 mg/100 microliter) and directly stored at −80° C. until analysis. Plasma amino acid analysis was conducted with HPLC, making use of a 2-3 μm Bischof Spherisorb ODS II column as described by van Eijk et al (J. Chromatogr. 1993: 620: 143-148). The plasma Trp/LNAA ratios were calculated by dividing the plasma molar tryptophan concentration by the sum of the plasma molar concentrations of the large neutral amino acids valine, isoleucine, leucine, tyrosine and phenylalanine. Statistical analysis took place by means of repeated measures multivariate and univariate analyses of variance (MANOVA and ANOVA) using the General Linear Model (GLM: SPSS 12.0 for Windows). All statistics were evaluated at a significance level of P=0.05.

[2] = earlier studies (Markus et al., 2000; Booij et al., 2006); cited from earlier work
pepsin [3] = biological target: T1, pepsin (Sus scrofa, UniProt P00791); assay: Test for protease resistancy (pepsin pH 4, SDS-PAGE); assay type: in vitro ADME; details: pepsin 1% w/w, 2 hours at 37 degrees C
T1 construct: purchased Sigma
T1 sequence (P00791 60-385): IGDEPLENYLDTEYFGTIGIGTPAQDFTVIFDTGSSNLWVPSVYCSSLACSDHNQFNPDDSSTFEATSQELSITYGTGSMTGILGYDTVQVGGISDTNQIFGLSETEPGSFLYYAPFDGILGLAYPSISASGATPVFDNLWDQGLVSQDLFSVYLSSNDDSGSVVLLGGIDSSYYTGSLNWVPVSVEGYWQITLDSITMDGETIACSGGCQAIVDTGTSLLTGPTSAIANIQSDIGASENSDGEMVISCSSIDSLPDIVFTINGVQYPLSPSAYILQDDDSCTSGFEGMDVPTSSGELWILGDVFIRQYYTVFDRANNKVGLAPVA
Description: To test its digestibility in the human stomach, a 5% (w/w) solution of the intact protein was incubated with pepsin (Sigma; 1% w/w pepsin to intact protein) for 2 hours at 37 degrees C. in a Mc Ilvane buffer (0.2 M citric acid plus Na2HPO4) pH 4.0. The degree of protease resistancy is defined as the percentage of the protein that is not affected by the pepsin incubation. “Not affected” meaning that the molecular weight of the protein has not changed as a result of the pepsin incubation; “percentage of the protein” meaning the area under the curve after digestion times 100, divided by the area under the curve prior to digestion; “area under the curve” is the area of the protein having the initial molecular weight as provided by the quantitative analysis method used (see further).
Molecular weights are compared according to SDS-PAGE followed by staining according to the protocol specified hereunder. After staining of the gel, a digital image is prepared using the OptiGo imaging system (Isogen Life Science; www.isogen-life-science.com) followed by the quantitative analysis of selected protein bands using Totallab TL 100, version 2006 software (Nonlinear Dynamics Ltd; www.nonlinear.com) running under Windows XP.
All materials used for SDS-PAGE and staining were purchased from Invitrogen (Carlsbad, Calif., US). […] Staining was performed using Simply Blue Safe Stain (Collodial Coomassie G250).
Together with beta-lactoglobulin, alpha-lactalbumin forms the major protein constituent of whey. Because of its high Trp/LNAA ratio, isolated alpha-lactalbumin fractions as well as alpha-lactalbumin hydrolysates have gained popularity for enhancing plasma tryptophan levels. […] According to the present application, a pepsin-resistant molecule with a high Trp/LNAA ratio is essential to maintain high plasma Trp/LNAA ratios longer term. […] This was illustrated in the following experiment. […] After incubation both solutions were heated for 5 minutes at 80 degrees C. to terminate the reaction and small samples were subjected to SDS-PAGE (see Materials & Methods) to test the integrity of the various pepsin treated molecules.

[4] = tested on: trypsin/chymotrypsin mixture; assay: Lysozyme hydrolysis by a trypsin/chymotrypsin mixture (in vitro digestibility, DH); assay type: in vitro ADME, Porcine; details: pH start 7.2, 2 hours at 37 degrees C
Description: (§1) Both incubations were carried out under pH conditions that are prevalent in the stomach (pepsin) and duodenum (trypsin/chymotrypsin). […] To prevent major pH changes as the result of the ongoing protein hydrolysis, incubation was carried out in a Mc Ilvane buffer (0.2 M citric acid plus Na2HPO4).

[5] = Kinetics of plasma Trp/LNAA ratio after hydrolysed, intact or mixed lysozyme (Example 11); assay type: in vivo, human; details: inferred from area-under-the-curve
Description: Exclusion criteria were: chronic and current illness, at the discretion of the investigator; history of psychiatric disorders; use of selective serotonin reuptake inhibitors (SSRI); use of supplements targeting the central nervous system, such as supplements containing tryptophan, ephedrine, or St John's wort; egg allergy; drug abuse; participation in any other study involving investigational or marketed products concomitantly; intolerance to artificial sweeteners; any (history of) gastrointestinal disease that interferes with gastrointestinal function, at the discretion of the investigator; use of medication targeting the gastro-intestinal tract, such as antacids. Finally, for women, pregnancy or the use of a medically not accepted contraceptive method is an exclusion criterion as well. All subjects participating in the experiment signed an Informed Consent Form.
The study was performed according to a randomized, double-blind, crossover design with a washout period between the intake of the different treatments of three days at least.
The drinks were presented as sterile products in bottles with straws. […] A research assistant blind to the dietary conditions conducted the administration of the different drinks.
The subjects visited the site between 8 and 9 am, having fasted for at least 8 hours. A flexible cannula for blood drawings was inserted in their non-dominant forearm. […]

[6] = biological target: T2, microbial subtilisin (EC 3.4.21.62) (Bacillus licheniformis, UniProt P00780); assay: Susceptibility of lysozyme to subtilisin (Protex 6L) hydrolysis at elevated pH, DH; assay type: physicochemical
T2 construct: purchased Genencor (Leiden, The Netherlands) Protex 6L
T2 sequence (P00780 106-379): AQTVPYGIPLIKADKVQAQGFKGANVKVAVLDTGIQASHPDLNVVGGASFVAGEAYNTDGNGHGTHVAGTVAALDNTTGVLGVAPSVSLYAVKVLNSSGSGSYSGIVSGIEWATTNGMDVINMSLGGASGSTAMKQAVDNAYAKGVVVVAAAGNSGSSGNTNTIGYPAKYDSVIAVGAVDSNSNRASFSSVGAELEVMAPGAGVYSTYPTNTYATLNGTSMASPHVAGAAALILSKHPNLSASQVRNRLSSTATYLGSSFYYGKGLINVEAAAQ
Description: The Degree of Hydrolysis (DH) as obtained during incubation with the various proteolytic mixtures was monitored using a rapid OPA test (Nielsen, P. M.; Petersen, D.; Dambmann, C. Improved method for determining food protein degree of hydrolysis. Journal of Food Science 2001, 66, 642-646).
The incubation was carried out for 3 hours at 60 degrees C. with a constant adjustment of the pH using 1M NaOH. The incubations yielded slightly turbid solutions without any significant precipitates. After a heating step to inactivate the subtilisin activity, the DH values of the various incubations were measured according to the protocol described in the Materials & Methods section. […] The pH 7.0 incubation yielded a DH of 6.3, the pH 8.0 incubation a DH of 11.2 and the pH 9.0 incubation a DH of 16.4.

pepsin [7] = biological target: T1, pepsin; assay: Lysozyme hydrolysis by pepsin (in vitro digestibility, DH); assay type: in vitro ADME; details: pH start 2.8, 2 hours at 37 degrees C
Description: as §1

N[C@@H](CO)C(=O)N[C@@H](Cc1c[nH]c2ccccc12)C(=O)O [SYN, Ser-Trp] (H-Ser-Trp-OH)
mood changes (POMS total mood scores) (healthy volunteers): not significant
increase in plasma Trp/LNAA ratio [1]: 263%

N[C@@H](Cc1c[nH]c2ccccc12)C(=O)O [TRP, L-tryptophan]
mood (POMS total mood scores) (healthy volunteers; 60 min after the intake): Comparable improvements of mood
plasma Trp/LNAA ([1]; both, human, 0 min): 0.11
plasma Trp/LNAA ([1]; both, human, 30 min): 0.12
plasma Trp/LNAA ([1]; both, human, 60 min): 0.29
plasma Trp/LNAA ([1]; both, human, 90 min): 0.31
increase in plasma Trp/LNAA ratio ([1]; both, human, 120 min): 191%
plasma Trp/LNAA ([1]; both, human, 120 min): 0.32
plasma Trp/LNAA ([1]; both, human, 180 min): 0.24
plasma Trp/LNAA ([1]; both, human, 210 min): 0.20

ALAC: intact alpha-lactalbumin obtained as Biopure (>90% alpha-lactalbumin) from Davisco Foods; in Example 10 part of whey protein (Bipro)
increases in plasma Trp/LNAA as previously found [2]: 50-70%
mood changes (POMS total mood scores) (healthy volunteers): no mood changes
quantity of intact protein after incubation with pepsin (SDS-PAGE) (pepsin [3]): almost completely degraded
protease resistant according to the test (more than 50% of protein with original molecular weight present) (pepsin [3]; listed as alpha-lactoglobulin): not “protease resistant”
protease resistant according to the test (more than 50% of protein with original molecular weight present) (pepsin [3]; listed as intact alpha-lactalbumine): not protease-resistant
increase in plasma Trp/LNAA ratio [1]: 67%

beta-lactoglobulin: whey protein constituent of Bipro (Davisco), very low Trp/LNAA ratio (0.04)
protease resistant according to the test (more than 50% of protein with original molecular weight present) (pepsin [3]): protease resistant
quantity of intact protein after incubation with pepsin (SDS-PAGE) (pepsin [3]): remains largely intact

lysozyme: hen egg lysozyme (EC 3.2.1.17), intact protein, obtained as Delvozyme L or Delvozyme G from DSM Food Specialties
DH end (%) [4]: 1.3%
digestion and uptake into the blood [5]: completely digested and taken up into the blood
DH ([6]; pH 7.0, 3 hours at 60 degrees C): 6.3
DH ([6]; pH 8.0, 3 hours at 60 degrees C): 11.2
DH ([6]; pH 9.0, 3 hours at 60 degrees C): 16.4
DH end (%) (pepsin [7]): 2.4%
protease resistant according to the test (more than 50% of protein with original molecular weight present) (pepsin [3]): protease resistant
quantity of intact protein after incubation with pepsin (SDS-PAGE) (pepsin [3]): not significantly diminished
